From IntAct's records for PubMed 22705791

B1: Double-strand break repair protein MRE11 (Saccharomyces cerevisiae), P32829 (parent)
chain: MDYPDPDTIRILITTDNHVGYNENDPITGDDSWKTFHEVMMLAKNNNVDMVVQSGDLFHVNKPSKKSLYQVLKTLRLCCMGDKPCELELLSDPSQVFHYDEFTNVNYEDPNFNISIPVFGISGNHDDASGDSLLCPMDILHATGLINHFGKVIESDKIKVVPLLFQKGSTKLALYGLAAVRDERLFRTFKDGGVTFEVPTMREGEWFNLMCVHQNHTGHTNTAFLPEQFLPDFLDMVIWGHEHECIPNLVHNPIKNFDVLQPGSSVATSLCEAEAQPKYVFILDIKYGEAPKMTPIPLETIRTFKMKSISLQDVPHLRPHDKDATSKYLIEQVEEMIRDANEETKQKLADDGEGDMVAELPKPLIRLRVDYSAPSNTQSPIDYQVENPRRFSNRFVGRVANGNNVVQFYKKRSPVTRSKKSGINGTSISDRDVEKLFSESGGELEVQTLVNDLLNKMQLSLLPEVGLNEAVKKFVDKDEKTALKEFISHEISNEVGILSTNEEFLRTDDAEEMKALIKQVKRANSVRPTPPKENDETNFAFNGNGLDSFRSSNREVRTGSPDITQSHVDNESRITHISQAESSKPTSKPKRVRTATKKKIPAFSDSTVISDAENELGDNNDAQDDVDIDENDIIMVSTDEEDASYGLLNGRKTKTKTRPAASTKTASRRGKGRASRTPKTDILGSLLAKKRK
partner: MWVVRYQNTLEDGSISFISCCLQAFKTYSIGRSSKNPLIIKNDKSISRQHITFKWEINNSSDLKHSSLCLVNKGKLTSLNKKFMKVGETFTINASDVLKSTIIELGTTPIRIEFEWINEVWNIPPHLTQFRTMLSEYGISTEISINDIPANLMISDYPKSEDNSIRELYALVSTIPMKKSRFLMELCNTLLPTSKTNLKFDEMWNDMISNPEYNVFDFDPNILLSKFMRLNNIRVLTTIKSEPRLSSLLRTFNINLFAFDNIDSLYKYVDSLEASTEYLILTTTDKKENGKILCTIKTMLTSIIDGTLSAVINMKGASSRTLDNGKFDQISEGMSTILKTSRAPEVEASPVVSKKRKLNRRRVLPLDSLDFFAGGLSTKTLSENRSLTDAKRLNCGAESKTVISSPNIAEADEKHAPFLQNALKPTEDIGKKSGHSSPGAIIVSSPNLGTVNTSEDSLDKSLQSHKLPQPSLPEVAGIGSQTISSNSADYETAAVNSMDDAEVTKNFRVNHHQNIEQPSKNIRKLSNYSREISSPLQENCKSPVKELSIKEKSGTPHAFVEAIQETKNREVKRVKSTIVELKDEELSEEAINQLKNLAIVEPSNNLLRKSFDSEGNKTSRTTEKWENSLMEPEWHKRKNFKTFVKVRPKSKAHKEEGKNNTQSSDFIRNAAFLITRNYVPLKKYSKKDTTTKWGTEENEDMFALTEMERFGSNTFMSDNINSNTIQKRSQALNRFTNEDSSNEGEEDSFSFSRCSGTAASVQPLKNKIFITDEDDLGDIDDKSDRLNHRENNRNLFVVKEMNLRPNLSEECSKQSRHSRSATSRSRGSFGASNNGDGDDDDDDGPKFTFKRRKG

Variants of: B1
Details: with xrs2_yeast XRS2, P33301

Effect of a mutation on the interaction, disrupting interaction strength:
R76A
R76K
D109G
N113S
